T1: GIPR E354Q (Homo sapiens, UniProt P48546, E354Q)
T1 construct: host or cells: HEK293
T1 sequence (P48546 22-466 E354Q): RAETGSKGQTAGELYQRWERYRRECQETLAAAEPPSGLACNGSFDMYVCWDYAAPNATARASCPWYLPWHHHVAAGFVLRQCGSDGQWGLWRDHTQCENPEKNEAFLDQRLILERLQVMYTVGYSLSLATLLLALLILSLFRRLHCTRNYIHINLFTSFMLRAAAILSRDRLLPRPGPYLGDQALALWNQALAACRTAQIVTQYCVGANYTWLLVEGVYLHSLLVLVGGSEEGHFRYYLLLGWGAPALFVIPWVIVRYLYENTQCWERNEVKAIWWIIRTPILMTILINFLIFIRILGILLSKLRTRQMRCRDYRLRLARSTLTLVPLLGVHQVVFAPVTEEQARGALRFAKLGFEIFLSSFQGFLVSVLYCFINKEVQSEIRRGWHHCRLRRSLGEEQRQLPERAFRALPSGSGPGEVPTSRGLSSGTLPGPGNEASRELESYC

T2: GIPR S382T (Homo sapiens, UniProt P48546, S382T)
T2 construct: host or cells: HEK293
T2 sequence (P48546 22-466 S382T): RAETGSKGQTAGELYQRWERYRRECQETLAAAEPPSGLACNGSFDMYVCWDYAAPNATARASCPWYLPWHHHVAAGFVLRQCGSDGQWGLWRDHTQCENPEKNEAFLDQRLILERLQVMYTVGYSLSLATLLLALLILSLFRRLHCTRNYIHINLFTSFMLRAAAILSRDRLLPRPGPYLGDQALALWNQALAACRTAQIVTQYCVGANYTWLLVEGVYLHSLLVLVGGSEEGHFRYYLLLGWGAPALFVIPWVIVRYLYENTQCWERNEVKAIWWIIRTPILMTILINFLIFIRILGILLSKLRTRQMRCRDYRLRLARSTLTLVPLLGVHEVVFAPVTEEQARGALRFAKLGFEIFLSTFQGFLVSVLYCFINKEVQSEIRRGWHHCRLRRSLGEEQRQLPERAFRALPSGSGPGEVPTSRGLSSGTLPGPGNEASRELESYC

T3: GIPR I378M (Homo sapiens, UniProt P48546, I378M)
T3 construct: host or cells: HEK293
T3 sequence (P48546 22-466 I378M): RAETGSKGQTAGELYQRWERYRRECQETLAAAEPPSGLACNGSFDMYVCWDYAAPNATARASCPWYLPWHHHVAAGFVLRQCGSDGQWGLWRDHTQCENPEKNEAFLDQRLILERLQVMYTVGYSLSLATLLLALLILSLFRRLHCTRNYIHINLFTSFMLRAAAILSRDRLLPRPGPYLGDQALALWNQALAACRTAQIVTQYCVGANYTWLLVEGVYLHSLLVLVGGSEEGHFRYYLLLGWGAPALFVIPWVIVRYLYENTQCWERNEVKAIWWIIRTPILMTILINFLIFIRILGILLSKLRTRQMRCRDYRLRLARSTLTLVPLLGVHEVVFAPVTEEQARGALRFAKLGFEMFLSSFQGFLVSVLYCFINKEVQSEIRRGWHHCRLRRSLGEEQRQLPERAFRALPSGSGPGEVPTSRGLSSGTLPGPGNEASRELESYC


Key:
GIPR E354Q = biological target: T1, GIPR E354Q; experiment: cAMP accumulation; format: cell-based
Description: (§1) HEK293 (CRL-1573, American Type Culture Collection) and β-arrestin 1/2 knockout cells, generated from HEK293A[48], were used for cAMP measurement, homologues competition binding and β-arrestin 2 recruitment. […] Both cell lines were cultured at 5% CO2 at 37 °C in Roswell Park Memorial Institute GlutaMAX-I supplemented with 10% fetal bovine serum, 180 units ml^−1 penicillin, and 45 g ml^−1 streptomycin. For the cAMP and binding experiments, cells were transfected with the calcium phosphate precipitation method[49].
(§2) cAMP production was measured with the DiscoverX Hithunter cAMP assay according to the manufacturer’s protocol (DiscoverX). […] On the day of the assay, the cells were washed twice with HEPES-buffered saline (HBS) and incubated with HBS and 1 mM 3-isobutyl-1-methylxanthine for 30 min at 37 °C. […] After the incubation, the assay medium was removed from the plate and the cells were washed with 30 µl PBS and treated with 40 µl enzyme donor–lysis buffer–chemiluminescent reagents and 10 µl cAMP antibodies for 60 min before 40 µl enzyme acceptor solution added. After a 3-h incubation on a shaking table in the dark, the cAMP accumulation was measured based on luminescence with a Perkin Elmer EnVision 2104 Multilabel Microplate Reader. […]

GIPR variants (groups) [1] = experiment: β-arrestin 2 recruitment (BRET); conditions: for In vitro groups (β-arrestin): arr part of the in vitro group; for Beta, Barr: in vitro β-arrestin recruitment per GIPR variant;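 on all read-outs here: BRET readout of β-arrestin 2 recruitment in transiently transfected HEK293 cells expressing WT GIPR or a GIPR variant plus GPCR kinase 2, Rluc8 donor and citrine acceptor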
GIPR variants (groups) [2] = experiment: cAMP accumulation; format: cell-based, human; conditions: for In vitro groups (cAMP): cAMP part of the in vitro group; for percentage_camp: cAMP production compared with WT; for Beta, cAMP: in vitro cAMP production per GIPR variant
GIPR S382T = biological target: T2, GIPR S382T; experiment: cAMP accumulation; format: cell-based
Description: as §1, §2

GIPR I378M = biological target: T3, GIPR I378M; experiment: cAMP accumulation; format: cell-based
Description: as §1, §2

| Molecule | Efficacy at 100pmol (cAMP) (GIPR E354Q) | In vitro groups (β-arrestin) (GIPR variants (groups) [1]) | Beta, Barr (GIPR variants (groups) [1]) | In vitro groups (cAMP) (GIPR variants (groups) [2]) | percentage_camp (GIPR variants (groups) [2]) | Beta, cAMP (GIPR variants (groups) [2]) | Efficacy at 100pmol (cAMP) (GIPR S382T) | Efficacy at 100pmol (cAMP) (GIPR I378M) |
| --- | --- | --- | --- | --- | --- | --- | --- | --- |
| E354Q (protein) RAETGSKGQTAGELYQRWERYRRECQETLAAAEPPSGLACNGSFDMYVCWDYAAPNATARASCPWYLPWHHHVAAGFVLRQCGSDGQWGLWRDHTQCENPEKNEAFLDQRLILERLQVMYTVGYSLSLATLLLALLILSLFRRLHCTRNYIHINLFTSFMLRAAAILSRDRLLPRPGPYLGDQALALWNQALAACRTAQIVTQYCVGANYTWLLVEGVYLHSLLVLVGGSEEGHFRYYLLLGWGAPALFVIPWVIVRYLYENTQCWERNEVKAIWWIIRTPILMTILINFLIFIRILGILLSKLRTRQMRCRDYRLRLARSTLTLVPLLGVHQVVFAPVTEEQARGALRFAKLGFEIFLSSFQGFLVSVLYCFINKEVQSEIRRGWHHCRLRRSLGEEQRQLPERAFRALPSGSGPGEVPTSRGLSSGTLPGPGNEASRELESYC | 1.125 | WT-like_arr | 0.9822 | WT-like_camp | >50% cAMP | 1.125 |  |  |
| S382T (protein) RAETGSKGQTAGELYQRWERYRRECQETLAAAEPPSGLACNGSFDMYVCWDYAAPNATARASCPWYLPWHHHVAAGFVLRQCGSDGQWGLWRDHTQCENPEKNEAFLDQRLILERLQVMYTVGYSLSLATLLLALLILSLFRRLHCTRNYIHINLFTSFMLRAAAILSRDRLLPRPGPYLGDQALALWNQALAACRTAQIVTQYCVGANYTWLLVEGVYLHSLLVLVGGSEEGHFRYYLLLGWGAPALFVIPWVIVRYLYENTQCWERNEVKAIWWIIRTPILMTILINFLIFIRILGILLSKLRTRQMRCRDYRLRLARSTLTLVPLLGVHEVVFAPVTEEQARGALRFAKLGFEIFLSTFQGFLVSVLYCFINKEVQSEIRRGWHHCRLRRSLGEEQRQLPERAFRALPSGSGPGEVPTSRGLSSGTLPGPGNEASRELESYC |  | LoF_arr | 0.05782 | LoF_camp | <50% cAMP | 0.1068 | 0.1068 |  |
| I378M (protein) RAETGSKGQTAGELYQRWERYRRECQETLAAAEPPSGLACNGSFDMYVCWDYAAPNATARASCPWYLPWHHHVAAGFVLRQCGSDGQWGLWRDHTQCENPEKNEAFLDQRLILERLQVMYTVGYSLSLATLLLALLILSLFRRLHCTRNYIHINLFTSFMLRAAAILSRDRLLPRPGPYLGDQALALWNQALAACRTAQIVTQYCVGANYTWLLVEGVYLHSLLVLVGGSEEGHFRYYLLLGWGAPALFVIPWVIVRYLYENTQCWERNEVKAIWWIIRTPILMTILINFLIFIRILGILLSKLRTRQMRCRDYRLRLARSTLTLVPLLGVHEVVFAPVTEEQARGALRFAKLGFEMFLSSFQGFLVSVLYCFINKEVQSEIRRGWHHCRLRRSLGEEQRQLPERAFRALPSGSGPGEVPTSRGLSSGTLPGPGNEASRELESYC |  | GoF_arr | 1.357 | WT-like_camp | >50% cAMP | 0.8167 |  | 0.8167 |

From PMC11272584 (Nature Metabolism, 2024)
